{"source": "paper PMC9836055", "tested_on": "CC(=O)Oc1ccc([N+](=O)[O-])cc1", "assay": "purified protein", "details": "PBS, 37 °C, 0.25 mg/mL enzyme", "data": [{"substance": "Lsa45 (Leptospiral surface adhesin of 45 kDa) (Leptospira interrogans serovar Copenhageni str. Fiocruz L1-130)", "values": [{"measurement": "Km", "result": "849.3 ± 15.30", "unit": "µM"}, {"measurement": "Vmax", "result": 219, "unit": "µM/min"}]}]}
